Data from patent publication USRE46585 (LABORATOIRE FRANCAIS DU FRACTIONNEMENT ET DES …, dated 2017).

Assays:
[1] = biological target: T1, recombinant soluble human FcRn (human, UniProt P55899 24-297; P61769 21-119); assay: SPR pH6, immobilized FcRn, steady state
T1 construct: amine-coupled to the SPR chip

FcRn-p3 fusion protein = biological target: T2, FcRn-p3 fusion protein (human, UniProt P55899 24-297; P61769 21-119); assay: ELISA pH6, soluble Fc on coated FcRn-p3
T2 construct: baculovirus expressed; coated on ELISA wells; not shown: amino terminal part of bacteriophage p3 protein and CVDE protein

- SPR Ratio/Fc-WT (Fc-WT Kd / variant Kd) [1]: 5.2 fold
- Fc-rec-ELISA Ratio/WT (FcRn-p3 fusion protein): 25.3 fold
B1: S3A_07 (soluble recombinant Fc polypeptide) (other)
chain: CPPCPAPELLGGPSVFLFPPKPKDTLMISRTPEVTCVVEDVSHEDPEVKFNWYVDGVEVHNAKTKPREEQYNSTYRVVSVLTVLHQDWLNGKEYKCKVSNKALPAPIEKTISKAKGQPREPQVYTLPPSRDELTKNQVSLTCLVKGFYPSDIVVEWGSNGQPENNYKTTPPVLDSDGSFFLYSKLTVDKSRWQQGNVFSCSVMHEALHNHYTQKSLSLSPGK
notes: EU numbering; E. coli periplasmic expression; not shown: C-terminal 6xHis tag and V5 tag
